Reference: patent publication US20180237496A1 (DENALI THERAPEUTICS, published 2018)
Substitutions are numbered along the chain they refer to.

T1: His-tagged permuted human TfR apical domain (TfR-AD) (human)
T1 construct: C-terminal His6; used for co-crystals (Expi293 or CHO); also called permuted TfR apical domain
T1 chain: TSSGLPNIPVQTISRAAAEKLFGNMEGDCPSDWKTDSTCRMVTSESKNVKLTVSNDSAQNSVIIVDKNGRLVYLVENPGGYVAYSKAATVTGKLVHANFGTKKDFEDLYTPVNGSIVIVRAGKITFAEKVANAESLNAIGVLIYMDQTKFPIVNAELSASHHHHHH

T2: cynomolgus (cyno) transferrin receptor (TfR) ectodomain (ECD) (cynomolgus (cyno), biotinylated where captured on streptavidin ; biotinylated (sulfo-NHS-LC-biotin on amines or BirA on the Avi-tag) where captured on streptavidin)
T2 construct: made in HEK293; also called cyno TfR; cynoTfR; not shown: C-terminal cleavable His- and Avi-tags with their cleavage site
T2 chain: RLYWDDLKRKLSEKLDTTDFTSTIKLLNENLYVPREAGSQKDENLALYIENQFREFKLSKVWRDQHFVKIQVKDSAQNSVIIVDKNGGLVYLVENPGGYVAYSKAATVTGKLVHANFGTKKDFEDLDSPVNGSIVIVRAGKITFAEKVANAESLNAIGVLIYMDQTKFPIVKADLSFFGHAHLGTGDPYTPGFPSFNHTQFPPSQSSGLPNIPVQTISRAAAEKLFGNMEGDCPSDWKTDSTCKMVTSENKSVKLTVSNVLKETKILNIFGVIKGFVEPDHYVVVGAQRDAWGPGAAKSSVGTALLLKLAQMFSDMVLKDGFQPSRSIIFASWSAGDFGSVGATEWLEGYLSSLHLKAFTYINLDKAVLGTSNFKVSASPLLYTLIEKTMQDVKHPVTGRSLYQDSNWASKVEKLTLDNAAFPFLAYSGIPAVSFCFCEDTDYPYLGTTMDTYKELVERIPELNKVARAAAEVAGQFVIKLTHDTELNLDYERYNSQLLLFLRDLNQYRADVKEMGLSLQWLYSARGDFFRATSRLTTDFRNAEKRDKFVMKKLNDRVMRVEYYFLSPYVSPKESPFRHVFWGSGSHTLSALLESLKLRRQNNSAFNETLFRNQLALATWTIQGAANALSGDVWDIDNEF

B1: CH3C.18 Fc (expressed engineered human Fc) (designed binder)
chain: DKTHTCPPCPAPEAAGGPSVFLFPPKPKDTLYITREPEVTCVVVDVSHEDPEVKFNWYVDGVEVHNAKTKPREEQYNSTYRVVSVLTVLHQDWLNGKEYKCKVSNKALGAPIEKTISKAKGQPREPQVYTLPPSRDELTKNQVSLTCLVKGFYPSDIAVEWESLGHVWAVYKTTPPVLDSDGSFFLYSKLTVPKSTWQQGWVFSCSVMHEALHNHYTQKSLSLSPGK
notes: also called CH3C.18 Fc polypeptide
B2: CH3C.35 Fc (expressed engineered human Fc) (designed binder)
chain: B1 chain with L164Y, H166T, V167E, A169S, V170S, P193T, T196E, W201F
B3: Clone CH2A2.4 (designed binder)
chain: PCPAPELLGGPSVFLFPPKPKDTLMISRTPEVTCVVVDVSHEDPEVSFEWYVDGVPVRWEWQWPREEQYNSTYRVVSVLTVLHQDWLNGKEYKCKVSNKALPAPIEKTISKAKGQPREPQVYTLPPSRDELTKNQVSLTCLVKGFYPSDIAVEWESNGQPENNYKTTPPVLDSDGSFFLYSKLTVDKSRWQQGNVFSCSVMHEALHNHYTQKSLSLSPGK
notes: modified human IgG1 Fc, phage display
B4: Clone CH2A2.5 (designed binder)
chain: B3 chain with S47A, E49T, W63N
notes: as for B3
B5: Clone CH2A2.16 (designed binder)
chain: B3 chain with S47W, P56F, R58G, W59V, E60A, W61Y, Q62D, W63V
notes: as for B3
B6: Clone CH2A2.1 (designed binder)
chain: B3 chain with S47E, E49I, P56D, W59Y, W63L
notes: as for B3
B7: Clone CH2C.6 (designed binder)
chain: PCPAPELLGGPSVFLFPPKPKDTLMISRTPEVTCVVVDPKMPPWEVKFNWYVDGVEVHNAKTKPREEEYYTYYRVVSVLTVLHQDWLNGKEYKCKVSNKALPAPIEKTISKAKGQPREPQVYTLPPSRDELTKNQVSLTCLVKGFYPSDIAVEWESNGQPENNYKTTPPVLDSDGSFFLYSKLTVDKSRWQQGNVFSCSVMHEALHNHYTQKSLSLSPGK
notes: as for B3

Legend:
[1] = target: T1, His-tagged permuted human TfR apical …; experiment: size-exclusion chromatography of the mixed proteins
[2] = target: T3, human transferrin receptor (TfR) ectodomain (ECD) (human, biotinylated where captured on streptavidin ; Biotinylated (NHS-biotin on amines, or BirA on the Avi-tag) where captured on streptavidin. It forms a homodimer, and the unique chain is given once.); experiment: phage ELISA, clone on phage, target coated on plate
T3 construct: made in HEK293; also called human TfR; huTfR; not shown: The C-terminal cleavable His- and Avi-tags
Procedure: (§1) FIGS. 1A-1D show phage ELISA results for four CH2A2 clones.
(§2) ELISA plates were coated with target, typically at […] overnight, then blocked with 1% BSA before addition of phage or periplasmic extracts. […] The plates were washed again, and then developed with TMB reagent and quenched with 2N sulfuric acid. […] Absorbance signal for tested clones was compared to negative control (phage or paraplasmic extract lacking Fc).
Target sequence in this assay (chain, as listed by the source limits assumed, form in doubt): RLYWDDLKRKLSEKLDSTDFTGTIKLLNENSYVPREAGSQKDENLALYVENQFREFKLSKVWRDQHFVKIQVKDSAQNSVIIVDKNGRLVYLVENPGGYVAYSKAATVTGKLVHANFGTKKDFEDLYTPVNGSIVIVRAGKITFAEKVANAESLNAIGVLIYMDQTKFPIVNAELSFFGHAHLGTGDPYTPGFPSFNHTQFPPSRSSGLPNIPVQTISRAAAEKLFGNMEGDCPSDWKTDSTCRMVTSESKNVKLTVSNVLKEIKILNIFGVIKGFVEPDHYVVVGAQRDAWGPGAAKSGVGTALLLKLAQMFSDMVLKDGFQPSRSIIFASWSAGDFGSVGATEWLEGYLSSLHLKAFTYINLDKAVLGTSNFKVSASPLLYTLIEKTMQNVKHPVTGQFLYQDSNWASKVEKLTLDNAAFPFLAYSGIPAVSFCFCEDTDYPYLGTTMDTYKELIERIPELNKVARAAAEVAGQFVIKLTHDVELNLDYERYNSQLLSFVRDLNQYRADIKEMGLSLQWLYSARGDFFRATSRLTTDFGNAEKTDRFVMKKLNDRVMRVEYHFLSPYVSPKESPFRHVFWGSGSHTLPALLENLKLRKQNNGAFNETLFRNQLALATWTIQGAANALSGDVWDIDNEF

[3] = target: T2, cynomolgus (cyno) transferrin receptor …; experiment: as above
Procedure: as §1, §2

[4] = target: T3, human transferrin receptor (TfR) …; experiment: ELISA, clone as Fc-Fab fusion, human TfR coated

Binder | binding result [1] | EC50 (read off the curve) [2] | EC50 (read off the curve) [3] | EC50 (read off the curve) [4] [nM]
B1 | binds | – | – | –
B2 | binds | – | – | –
B3 | – | ~0.02 OD268 (phage solution) | ~0.02 OD268 (phage solution) | –
B4 | – | ~0.008 OD268 (phage solution) | ~0.01 OD268 (phage solution) | –
B5 | – | ~0.04 OD268 (phage solution) | – | –
B6 | – | ~0.03 OD268 (phage solution) | ~0.04 OD268 (phage solution) | –
B7 | – | – | – | ~2
